Earlier results as cited in PMC9574052.

Target: oxytocin receptor (Homo sapiens) (UniProt P30559)
Sequence of UniProt P30559 (P30559 whole entry): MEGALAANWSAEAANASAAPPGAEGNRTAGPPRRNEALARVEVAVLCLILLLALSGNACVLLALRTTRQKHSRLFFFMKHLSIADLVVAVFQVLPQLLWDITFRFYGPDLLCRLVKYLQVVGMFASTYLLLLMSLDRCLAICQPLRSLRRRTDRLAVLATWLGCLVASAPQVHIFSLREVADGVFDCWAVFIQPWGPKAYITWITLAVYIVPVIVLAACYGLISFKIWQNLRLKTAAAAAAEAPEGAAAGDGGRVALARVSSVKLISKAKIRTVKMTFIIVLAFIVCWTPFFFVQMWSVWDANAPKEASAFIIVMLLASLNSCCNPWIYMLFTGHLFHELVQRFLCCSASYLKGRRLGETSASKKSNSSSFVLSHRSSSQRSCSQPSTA

Sequence of oxytocin (P01178 whole entry, looked up): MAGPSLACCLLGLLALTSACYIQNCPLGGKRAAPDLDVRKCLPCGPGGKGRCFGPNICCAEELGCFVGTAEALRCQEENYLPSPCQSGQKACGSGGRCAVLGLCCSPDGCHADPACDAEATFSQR

Ki: 790 pM
Substance: oxytocin (from UniProt P01178)
